In patent publication US20260250391A1 (NEW YORK UNIVERSITY, published 2026):

T1: Human ICAM-2 extracellular region (UniProt ID P13598; residues 25-223), C-terminally fused to His6 and … (human, UniProt P13598 25-223, biotinylated with BirA (Avi-tag) when used as selection antigen)
T1 construct: range 25-223; Expressed from EXPI293 cells; also called hICAM-2; not shown: C-terminal His6 and Avi-tags
T1 sequence (looked up): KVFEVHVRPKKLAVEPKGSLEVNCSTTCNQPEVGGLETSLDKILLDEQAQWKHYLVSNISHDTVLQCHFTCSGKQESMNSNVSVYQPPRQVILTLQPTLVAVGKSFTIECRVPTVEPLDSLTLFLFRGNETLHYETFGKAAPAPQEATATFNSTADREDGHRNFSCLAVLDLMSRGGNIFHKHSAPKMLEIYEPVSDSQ

T2: Pig ICAM-2 extracellular region (UniProt ID Q6VY03; residues 24-250), C-terminally fused to His6 and Avi-tags (pig, UniProt Q6VY03 24-250, Possibly biotinylated on the Avi-tag, as for human ICAM-2 in Example 1; this is not stated for pig. The tag is not included in the letters.)
T2 construct: also called pICAM-2
T2 sequence: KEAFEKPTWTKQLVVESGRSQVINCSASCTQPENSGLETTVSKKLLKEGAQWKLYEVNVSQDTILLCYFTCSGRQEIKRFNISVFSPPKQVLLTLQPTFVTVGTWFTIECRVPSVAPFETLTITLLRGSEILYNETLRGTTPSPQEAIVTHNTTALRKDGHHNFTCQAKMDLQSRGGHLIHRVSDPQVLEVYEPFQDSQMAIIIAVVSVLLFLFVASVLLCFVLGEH

T3: Endogenous human ICAM-2 on the surface of Primary Umbilical Vein Endothelial Cells (HUVEC) (human, UniProt P13598 25-275)
T3 construct: whole, on cells; also called cell surface ICAM-2; endogenous ICAM-2
T3 sequence (looked up): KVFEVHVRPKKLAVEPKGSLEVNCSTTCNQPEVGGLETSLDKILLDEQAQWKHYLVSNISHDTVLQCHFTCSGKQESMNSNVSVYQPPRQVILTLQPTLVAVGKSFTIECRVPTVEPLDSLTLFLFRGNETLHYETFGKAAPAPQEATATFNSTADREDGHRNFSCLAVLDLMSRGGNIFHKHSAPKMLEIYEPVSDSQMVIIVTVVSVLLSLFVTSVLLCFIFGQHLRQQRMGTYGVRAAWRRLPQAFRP


Assays:
[1] = target: T1, Human ICAM-2 extracellular region …; assay: BLI (Octet): biotinylated monobody on streptavidin tips, human ICAM-2 in solution; global 1:1 fit without the highest concentration
Experimental: (§1) The four monobody samples identified in Example 1 were produced as purified proteins with N-terminal tags containing His6 and Avi-tag, followed by enzymatic biotinylation using the BirA enzyme. The proteins were immobilized on streptavidin-coated biolayer interferometry (BLI) tips using an Octet instrument (Sartorius) and their interaction with human ICAM-2 was monitored with the instrument (FIG. 1).
FIG. 1 depicts BLI sensorgrams. The global fitting of the 1:1 binding model was performed on the data after excluding the highest concentration sensorgrams, because the association rates in the highest concentration data are too high for accurate fitting. The KD values from the global fitting are shown.

[2] = target: T2, Pig ICAM-2 extracellular region …; assay: BLI (Octet) of the monobody with pig ICAM-2
Source text: as §1
Biolayer interferometry (BLI) for five of the monobodies (Mb_pICAM2_L1, Mb_pICAM2_L6, Mb_pICAM2_L11, Mb_pICAM2_L14, and Mb_pICAM2_L22) was carried out using the procedures and equipment described above (FIG. 5).

[3] = target: T3, Endogenous human ICAM-2 on the surface …; assay: Flow cytometry (MFI) of negative control monobody bound to streptavidin DyLight 650 on HUVEC; concentration as monomer [panel B]
Experimental: Whether Mb_ICAM2_S40 detected endogenous ICAM-2 molecules expressed on the surface of human cells was tested. […] The expression of ICAM-2 in HUVEC but not in Expi293 was confirmed using a commercially available anti-hICAM-2 antibody (FIG. 2D).

Binder | Kd [1] | Kd [2] | other results
Mb_ICAM2_S38 (designed binder, biotin on the Avi-tag (enzymatic biotinylation with BirA) in the BLI assay, Monobody (FN3 domain from human 10FN3); Purified form carries N-terminal His6 and Avi tags; not shown: N-terminal tags containing His6 and Avi-tag) VSSVPTKLEVVAATPTSLLISWDAPAVTVLYYFITYGETGPASYGAQEFAVPGSKSTATISGLKPGVDYTITVYAISNKWKYSPISINYRT | 26 nM | – | –
Mb_pICAM2_L1 (designed binder, Identified by yeast display) VSSVPTKLEVVAATPTSLLISWDAGYWSSVAYYRITYGETGGNSPVQEFTVPGSSSTATISGLKPGVDYTITVYAMTSGYSWYSPISINYRT | – | 19.3 nM | –
Mb_ICAM2_S40 (designed binder, biotin on the Avi-tag (enzymatic biotinylation with BirA) in the BLI and flow cytometry assays, Monobody (FN3 domain from human 10FN3); Purified form carries N-terminal His6 and Avi tags; not shown: N-terminal tags containing His6 and Avi-tag) VSSVPTKLEVVAATPTSLLISWDAPAVTVLYYFITYGETGGNSPVQEFAVPGSKSTATISGLKPGVDYTITVYALSSKWRYSPISINYRT | – | – | apparent Kd (pooled screen) [1]: 14 nM
Mb_ICAM2_S36 (designed binder, biotin on the Avi-tag (enzymatic biotinylation with BirA) in the BLI assay, Monobody (FN3 domain from human 10FN3); Purified form carries N-terminal His6 and Avi tags; not shown: N-terminal tags containing His6 and Avi-tag) VSSVPTKLEVVAATPTSLLISWDAPAVTVLYYFITYGETGHGSAYQEFAVPGSKSTATISGLKPGVDYTITVYALWYKGITSPISINYRT | 4.5 nM | – | –
Mb_ICAM2_S32 (designed binder, biotin on the Avi-tag (enzymatic biotinylation with BirA) in the BLI assay, Monobody (FN3 domain from human 10FN3); Purified form carries N-terminal His6 and Avi tags; not shown: N-terminal tags containing His6 and Avi-tag) VSSVPTKLEVVAATPTSLLISWDAPAVTVLYYFITYGETGGNSPVQEFAVPGSKSTATISGLKPGVDYTITVYAINQYWKYSPISINYRT | 5.9 nM | – | –
Negative control monobody (SEQ ID NO: 34) (designed binder, Tested conjugated to streptavidin DyLight 650; The tags and biotinylation of this control are not described) VSSVPTKLEVVAATPTSLLISWDASSSSVSYYRITYGETGGNSPVQEFTVPGSKSTATISGLKPGVDYTITVYASSSSSSSSSSSKPISINYRT | – | – | binding result [3]: no binding (tested: 200 nM)

More lines, main results first:

Kd [1] | Kd [2] | Binder | other results
– | 11.8 nM | Mb_pICAM2_L14 (designed binder, Identified by yeast display) VSSVPTKLEVVAATPTSLLISWDAGYWSSVSYYRITYGETGGNSPVQEFTVPGSSYTATISGLKPGVDYTITVYAQTSYYSWYSPISINYRT | –
– | 12.1 nM | Mb_pICAM2_L11 (designed binder, Identified by yeast display) VSSVPTKLEVVAATPTSLLISWDAGYWSSVAYYRITYGETGGNSPVQEFTVPSSSSTATISGLKPGVDYTITVYAMTSGYSWYSPISINYRT | –
– | 14 nM | Mb_pICAM2_L6 (designed binder, Identified by yeast display) VSSVPTKLEVVAATPTSLLISWDAGYWSSVAYYRITYGETGGNSPVQEFTVPSSSSTATISGLKPGVDYTITVYAQTSMYSWYSPISINYRT | –
– | 16.8 nM | Mb_pICAM2_L22 (designed binder, Identified by yeast display) VSSVPTKLEVVAATPTSLLISWDAGYWSSVAYYRITYGETGGNSPVQEFTVPGSSYTATISGLKPGVDYTITVYAKTSDYSWYSPISINYRT | –
